Earlier results in publication PMC10990137.

Target: IGF2R domain 11 (Homo sapiens) (UniProt P11717)
Details: cited from earlier work

Sequence of IGF2 (P01344 25-91): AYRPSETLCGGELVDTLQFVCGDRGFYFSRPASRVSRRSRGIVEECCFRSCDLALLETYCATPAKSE
Sequence of IGF2R domain 11 (Homo sapiens) (P11717 1508-1650): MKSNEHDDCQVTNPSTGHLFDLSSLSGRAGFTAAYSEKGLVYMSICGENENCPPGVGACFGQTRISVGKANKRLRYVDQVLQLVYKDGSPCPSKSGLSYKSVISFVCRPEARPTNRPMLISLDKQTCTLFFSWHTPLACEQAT

Question: For IGF2 (from UniProt P01344), which Kd is on record?
Answer: Its Kd is 4.5 nM.
